# Experimental data as given in patent US20190062420A1 (Janssen / Centocor, published 2019).
# T1: FcγRIIA protein (human, UniProt P12318 36-217, biotinylated (SureLINK Biotin Kit) in the ELISA of Example 1)
# T1 sequence: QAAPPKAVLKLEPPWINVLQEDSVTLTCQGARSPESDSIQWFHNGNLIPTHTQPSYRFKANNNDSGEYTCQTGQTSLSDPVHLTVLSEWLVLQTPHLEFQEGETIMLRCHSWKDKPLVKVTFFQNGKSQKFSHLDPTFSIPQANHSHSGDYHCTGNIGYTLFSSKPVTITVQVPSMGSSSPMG
# T2: FcγRIIB protein (human, UniProt P31994 43-217, biotinylated (SureLINK Biotin Kit) in the ELISA of Example 1)
# T2 sequence: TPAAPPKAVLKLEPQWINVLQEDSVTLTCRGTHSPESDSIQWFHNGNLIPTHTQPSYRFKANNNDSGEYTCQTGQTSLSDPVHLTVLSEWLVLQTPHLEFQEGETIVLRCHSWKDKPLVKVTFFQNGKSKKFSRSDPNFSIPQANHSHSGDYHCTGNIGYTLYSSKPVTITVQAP
# T3: human FcγRIIB (NM_004001) expressed on cells (human, UniProt P31994 43-310)
# T3 construct: Transiently expressed on Expi293F cells; also called Expi293F FcγRIIB; HEK293F cells expressing FcγRIIB
# T3 sequence: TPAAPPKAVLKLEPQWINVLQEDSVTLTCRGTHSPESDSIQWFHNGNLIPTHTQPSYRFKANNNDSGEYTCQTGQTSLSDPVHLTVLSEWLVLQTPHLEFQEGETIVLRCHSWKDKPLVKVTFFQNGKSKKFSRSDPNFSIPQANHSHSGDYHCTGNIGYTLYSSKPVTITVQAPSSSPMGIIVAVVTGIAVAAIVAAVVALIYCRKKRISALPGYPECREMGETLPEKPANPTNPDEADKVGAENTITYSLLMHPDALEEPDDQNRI
# T4: human FcγRIIA (NM_021642) expressed on cells (human, UniProt P12318 36-317)
# T4 sequence: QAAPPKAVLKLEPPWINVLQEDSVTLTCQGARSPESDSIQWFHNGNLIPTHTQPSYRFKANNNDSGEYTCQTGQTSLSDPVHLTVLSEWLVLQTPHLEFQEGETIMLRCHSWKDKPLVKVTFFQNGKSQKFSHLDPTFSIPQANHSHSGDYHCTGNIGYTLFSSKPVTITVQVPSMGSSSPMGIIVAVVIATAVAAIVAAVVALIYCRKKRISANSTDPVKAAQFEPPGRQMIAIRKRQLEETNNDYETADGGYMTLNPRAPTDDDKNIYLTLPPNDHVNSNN
# T5: human OX40 expressed on HEK-Blue: OX40 cells (human, UniProt P43489 29-277)
# T5 construct: also called CD134
# T5 sequence: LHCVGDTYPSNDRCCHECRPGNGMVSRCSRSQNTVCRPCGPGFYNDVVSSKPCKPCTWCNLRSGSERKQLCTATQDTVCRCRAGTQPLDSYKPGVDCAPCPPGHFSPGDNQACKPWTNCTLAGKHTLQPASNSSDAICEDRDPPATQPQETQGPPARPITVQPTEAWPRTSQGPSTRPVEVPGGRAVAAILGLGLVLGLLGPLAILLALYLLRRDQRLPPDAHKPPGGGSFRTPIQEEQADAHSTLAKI
# B1: OX40SF2IgG2sigma_R2BS29_LC-C (bispecific antibody)
# heavy: QVQLVQSGAEVKKPGSSVKVSCKASGYTFKDYTMHWVRQAPGQGLEWIGGIYPNNGGSTYNQNFKDRVTLTADKSTSTAYMELSSLRSEDTAVYYCARMGYHGPHLDFDVWGQGTTVTVSSASTKGPSVFPLAPCSRSTSESTAALGCLVKDYFPEPVTVSWNSGALTSGVHTFPAVLQSSGLYSLSSVVTVPSSNFGTQTYTCNVDHKPSNTKVDKTVERKCCVECPPCPAPPAAASSVFLFPPKPKDTLMISRTPEVTCVVVDVSAEDPEVQFNWYVDGVEVHNAKTKPREEQFNSTFRVVSVLTVLHQDWLNGKEYKCKVSNKGLPSSIEKTISKTKGQPREPQVYTLPPSREEMTKNQVSLTCLVKGFYPSDIAVEWESNGQPENNYKTTPPMLDSDGSFFLYSKLTVDKSRWQQGNVFSCSVMHEALHNHYTQKSLSLSPGK
# light: DIQMTQSPSSLSASVGDRVTITCKASQDVGAAVAWYQQKPGKAPKLLIYWASTRHTGVPSRFSGSGSGTDFTLTISSLQPEDFATYYCQQYINYPLTFGGGTKVEIKRTVAAPSVFIFPPSDEQLKSGTASVVCLLNNFYPREAKVQWKVDNALQSGNSQESVTEQDSKDSTYSLSSTLTLSKADYEKHKVYACEVTHQGLSSPVTKSFNRGECGGGGSGGGGSGGGGSGGGGSMLPAPKNLVVSRVTEDSARLSWTAPDAAFDSFPIYYWEYRVGGEAIVLTVPGSERSYDLTGLKPGTEYFVYINGVKGGEESRPLSAIFTT
# notes: mAbtyrin: linker and R2BS29 FN3 domain at the C-terminus of the light chain of OX40SF2IgG2sigma; also called mAbtyrin
# B2: OX40SF2IgG2sigma_R2BS29_HC-N (bispecific antibody)
# heavy: LPAPKNLVVSRVTEDSARLSWTAPDAAFDSFPIYYWEYRVGGEAIVLTVPGSERSYDLTGLKPGTEYFVYINGVKGGEESRPLSAIFTTGGGGSGGGGSGGGGSGGGGSQVQLVQSGAEVKKPGSSVKVSCKASGYTFKDYTMHWVRQAPGQGLEWIGGIYPNNGGSTYNQNFKDRVTLTADKSTSTAYMELSSLRSEDTAVYYCARMGYHGPHLDFDVWGQGTTVTVSSASTKGPSVFPLAPCSRSTSESTAALGCLVKDYFPEPVTVSWNSGALTSGVHTFPAVLQSSGLYSLSSVVTVPSSNFGTQTYTCNVDHKPSNTKVDKTVERKCCVECPPCPAPPAAASSVFLFPPKPKDTLMISRTPEVTCVVVDVSAEDPEVQFNWYVDGVEVHNAKTKPREEQFNSTFRVVSVLTVLHQDWLNGKEYKCKVSNKGLPSSIEKTISKTKGQPREPQVYTLPPSREEMTKNQVSLTCLVKGFYPSDIAVEWESNGQPENNYKTTPPMLDSDGSFFLYSKLTVDKSRWQQGNVFSCSVMHEALHNHYTQKSLSLSPGK
# light: DIQMTQSPSSLSASVGDRVTITCKASQDVGAAVAWYQQKPGKAPKLLIYWASTRHTGVPSRFSGSGSGTDFTLTISSLQPEDFATYYCQQYINYPLTFGGGTKVEIKRTVAAPSVFIFPPSDEQLKSGTASVVCLLNNFYPREAKVQWKVDNALQSGNSQESVTEQDSKDSTYSLSSTLTLSKADYEKHKVYACEVTHQGLSSPVTKSFNRGEC
# notes: mAbtyrin: R2BS29 FN3 domain and linker at the N-terminus of the heavy chain of OX40SF2IgG2sigma; also called mAbtyrin
# Experiments:
# [1] = target: T6, human FcγRIIIA (NM_000569) expressed on cells (human, UniProt P08637 17-254); test: flow cytometry; Expi293F cells transfected with FcγRIIIA
# T6 construct: Transiently expressed on Expi293F cells; also used here for FcγRIIIA on the engineered effector cells of the ADCC reporter bioassay (Promega); also called FcγIIIA
# T6 sequence (P08637 17-254 limits assumed): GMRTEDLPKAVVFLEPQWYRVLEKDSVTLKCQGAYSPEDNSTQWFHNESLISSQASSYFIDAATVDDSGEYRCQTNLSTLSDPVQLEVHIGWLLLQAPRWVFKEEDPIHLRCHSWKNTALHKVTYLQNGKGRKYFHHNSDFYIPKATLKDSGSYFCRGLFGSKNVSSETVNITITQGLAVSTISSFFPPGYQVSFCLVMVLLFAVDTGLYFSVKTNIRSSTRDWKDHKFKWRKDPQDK
# Experimental: (§1) Plasmids expressing cDNAs encoding human FcγRI (NM_000566) (SEQ ID NO: 44), FcγRIIA (NM_021642) (SEQ ID NO: 2), FcγRIIB (NM_004001) (SEQ ID NO: 3), and FcγRIIIA (NM_000569) (SEQ ID NO: 45) (Origene) were transiently transfected into Expi293F cells by ExpiFectamine293 transfection kit (Life Technologies). Flow cytometry assays were performed 48 h after transfection.
# (§2) 2×10⁵ cells per well were seeded in 96-well plate and blocked in BSA Stain Buffer (BD Biosciences, San Jose, USA) for 30 min at 4° C. Cells were incubated with test mAbtyrin on ice for 1.5 h at 4° C. After being washed twice with BSA stain buffer, the cells were incubated with R-PE labeled anti-human or anti-mouse IgG secondary antibody (Jackson Immunoresearch Laboratories) for 45 min at 4° C. The cells were washed twice in stain buffer and then resuspended in 150 μL of Stain Buffer containing 1:200 diluted DRAQ7 live/dead stain (Cell Signaling Technology, Danvers, USA). PE and DRAQ7 signals of the stained cells were detected by Miltenyi MACSQuant flow cytometer (Miltenyi Biotec, Auburn, USA) using B2 and B4 channel respectively. Live cells were gated on DRAQ7 exclusion and the geometric mean fluorescence signals were determined for at least 10,000 live events collected. FlowJo software (Tree Star) was used for analysis. Data was plotted as the logarithm of antibody concentration versus mean fluorescence signals. Nonlinear regression analysis was performed by GraphPad Prism 6 (GraphPad Software, Inc.) and EC₅₀ values were calculated.
# FcγRIIA protein = target: T1, FcγRIIA protein; test: cell-based or functional assay
# FcγRIIB protein = target: T2, FcγRIIB protein; test: cell-based or functional assay
# [2] = target: T3, human FcγRIIB (NM_004001) expressed on …; test: flow cytometry; Raji cells (express predominantly FcγRIIB)
# Experimental: as §2
# Raji cell is a cell line derived from B cells that express predominantly FcγRIIB. The binding of mAbtyrins on Raji cells were investigated by flow cytometry assay described for testing mAbtyrin binding to FcγR. Binding of the mAbtyrins were detected by flow cytometry using a PE-labeled Goat F(ab′) against Human IgG(γ).
# [3] = target: T7, human FcγRI (NM_000566) expressed on cells (human, UniProt P12314 16-374); test: flow cytometry; Expi293F cells transfected with FcγRI
# T7 construct: Transiently expressed on Expi293F cells
# T7 sequence (P12314 16-374 limits assumed): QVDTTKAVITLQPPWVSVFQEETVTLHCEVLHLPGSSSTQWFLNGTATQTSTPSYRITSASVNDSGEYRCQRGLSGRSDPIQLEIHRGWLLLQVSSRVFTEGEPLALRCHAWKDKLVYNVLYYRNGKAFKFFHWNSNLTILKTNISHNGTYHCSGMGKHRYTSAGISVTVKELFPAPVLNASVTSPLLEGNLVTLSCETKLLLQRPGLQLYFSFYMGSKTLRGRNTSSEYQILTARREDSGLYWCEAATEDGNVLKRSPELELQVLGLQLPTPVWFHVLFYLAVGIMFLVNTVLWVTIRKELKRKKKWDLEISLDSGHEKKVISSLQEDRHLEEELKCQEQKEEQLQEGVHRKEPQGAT
# Experimental: as §1, §2
# [4] = target: T6, human FcγRIIIA (NM_000569) expressed on …; test: cell-based or functional assay
# [5] = target: T4, human FcγRIIA (NM_021642) expressed on …; test: cell-based or functional assay
# [6] = target: T3, human FcγRIIB (NM_004001) expressed on …; test: flow cytometry; Expi293F cells transfected with FcγRIIB
# Experimental: as §1, §2
# [7] = target: T4, human FcγRIIA (NM_021642) expressed on …; test: flow cytometry; Expi293F cells transfected with FcγRIIA
# Experimental: as §1, §2
# [8] = target: T5, human OX40 expressed on HEK-Blue: OX40 …; test: flow cytometry; HEK-Blue: OX40 cells
# Experimental: as §2
# The binding of mAbtyrins on OX40 expressed on cell surface were investigated by flow cytometry assay described for testing mAbtyrin binding to FcγR. A stable HEK-Blue reporter cell line expressing human OX40 (HEK-Blue: OX40) was established by transfection OX40 expression plasmid (pUNO1-hOX40) into HEK-Blue™ Null 1 cells engineered to express a secreted embryonic alkaline phosphatase (SEAP) reporter gene under the control of NF-κB-inducible promoter (IFN-β minimal promoter). mAbtyrins were incubated with HEK-Blue: OX40 cells and the binding was detected by flow cytometry using a PE-labeled Goat F(ab′)₂ against Human IgG(γ).
# [9] = target: T3, human FcγRIIB (NM_004001) expressed on …; test: cell-based or functional assay
Binder,EC50 [1],"IFNγ production by activated CD4 T cells, plate-coated FcγRIIA (FcγRIIA protein)","TNFα production by activated CD4 T cells, plate-coated FcγRIIA (FcγRIIA protein)","IFNγ production by activated CD4 T cells, plate-coated FcγRIIb (FcγRIIB protein)","TNFα production by activated CD4 T cells, plate-coated FcγRIIb (FcγRIIB protein)",EC50 [2],EC50 [3],ADCC (fold activation) at 1 µg/ml [4],ADCP EC50 [5],EC50 [6],EC50 [7],EC50 [8],% activity at 1 µg/ml with Raji cells (HEK-Blue: OX40 NF-κB reporter) [9]
B1,> 10 µg/mL,153 pg/mL,30 pg/mL,89 pg/mL,30 pg/mL,3.44 µg/mL,> 10 µg/mL,1 fold,16.5 ng/mL,0.941 µg/mL,0.054 µg/mL,0.196 µg/mL,76%
B2,> 10 µg/mL,89 pg/mL,28 pg/mL,76 pg/mL,29 pg/mL,1.2 µg/mL,> 10 µg/mL,1 fold,12 ng/mL,1.01 µg/mL,0.042 µg/mL,0.161 µg/mL,7%
